Biological target: T1, His-KHCstalk (human uKHC amino acid residues 555-772, tagged at the N-terminus with an oligohistidine … (human, UniProt P33176 555-772))
T1 construct: range 555-772; also the antigen used to raise the chicken anti-uKHC; also called HisKHC555-772; His-KHC fragment; not shown: N-terminal oligohistidine (His) tag
T1 sequence (looked up): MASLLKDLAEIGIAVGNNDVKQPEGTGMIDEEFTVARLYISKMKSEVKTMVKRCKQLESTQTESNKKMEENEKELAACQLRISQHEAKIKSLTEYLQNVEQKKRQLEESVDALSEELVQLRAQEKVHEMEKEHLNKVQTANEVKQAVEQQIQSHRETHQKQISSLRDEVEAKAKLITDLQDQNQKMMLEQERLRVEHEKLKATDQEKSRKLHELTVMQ
Assay: pull-down on nickel-activated beads, immunoblot

B1: untagged US11 (recombinant HSV1 US11 with five additional amino acids MGRLE at the N-terminus, expressed in Escherichia coli) (other)
chain: MGRLEMSQTQPPAPVGPGDPDVYLKGVPSAGMHPRGVHAPRGHPRMISGPPQRGDNDQAAGQCGDSGLLRVGADTTISKPSEAVRPPTIPRTPRVPREPRVPRPPREPREPRVPRAPRDPRVPRDPRDPRQPRSPREPRSPREPRSPREPRTPRTPREPRTARGSV
notes: also called untagged US11 construct
- binding result: no binding

From patent US6953661 (WESTMEAD HOSPITAL, dated 2005)
